The values that follow come from patent US6258556.

Bounds are passed on as bounds.

This assay concerns the target human µ opiate receptor (human).

Turning to “(D-ala^2, N-methyl-phe^4, glyol^5) enkephalin (peptide)”, the adenyl cyclase activity (cAMP radioimmunoassay) in forskolin-stimulated COS cells was greater than 30%.
